{"source": "patent US12214008B2", "about": "“Protein interfaces” (SyntheX, Inc., priority 2016, dated 2025)", "format_in_all_cases": "binding", "parameters_in_all_cases": "key: cells having the interaction would survive (+); cells not having the interaction would die (−) on selective media (−ADE, −HIS)", "key": {"[1]": {"biological_target": "T1, S.cerevisiae Rad51 (1-250) + H.sapiens Rad51 (190-339) (UniProt P25454+Q06609)", "T1 construct": "S.cerevisiae Rad51 (1-250) +; H.sapiens Rad51 (190-339); expressed in transfected cells", "T1 sequence (Q06609 190-339, one chain of several)": "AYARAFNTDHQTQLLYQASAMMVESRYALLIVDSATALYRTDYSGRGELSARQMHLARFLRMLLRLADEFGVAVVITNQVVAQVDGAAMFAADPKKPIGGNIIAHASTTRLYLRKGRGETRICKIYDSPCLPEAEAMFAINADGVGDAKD", "assay": "Y2H assay, RAD51 hybrid constructs", "description": "(§1) RAD51-binding peptides were tested for ability to bind RAD51 of several different species using a “conventional” Y2H assay, where interaction between the two-hybrid pair drove expression of ADE2 and HIS genes. In this Y2H assay the two-hybrid pair was RAD51 and the compound 5 peptide sequence (SEQ ID NO.: 5), so that cells having the interaction would survive (+) and cells not having the interaction would die (−) on selective media (−ADE, −HIS).\n(§2) Based on sequence comparisons of S. cerevisiae and H. sapiens RAD51, multiple cerevisiae-sapiens hybrid constructs of RAD51 were constructed and tested for their ability to bind RAD51-binding peptide in the same RAD51/SEQ ID NO.: 5 hybrid system described above."}, "[2]": {"biological_target": "T2, S.cerevisiae Rad51 (1-278) + H.sapiens Rad51 (218-339) (UniProt P25454+Q06609)", "T2 construct": "S.cerevisiae Rad51 (1-278) +; H.sapiens Rad51 (218-339); expressed in transfected cells", "T2 sequence (P25454 1-278)": "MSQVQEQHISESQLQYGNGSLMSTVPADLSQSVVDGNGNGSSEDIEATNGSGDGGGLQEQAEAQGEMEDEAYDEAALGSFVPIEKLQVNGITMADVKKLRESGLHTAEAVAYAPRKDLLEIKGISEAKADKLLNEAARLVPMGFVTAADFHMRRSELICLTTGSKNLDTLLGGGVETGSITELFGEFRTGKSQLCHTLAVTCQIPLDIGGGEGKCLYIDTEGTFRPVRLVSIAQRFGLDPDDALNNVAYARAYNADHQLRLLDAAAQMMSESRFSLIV", "T2 sequence (Q06609 218-339)": "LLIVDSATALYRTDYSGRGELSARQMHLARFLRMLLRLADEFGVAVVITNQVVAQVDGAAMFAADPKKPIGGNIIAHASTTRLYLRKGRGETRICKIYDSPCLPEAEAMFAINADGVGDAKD", "assay": "Y2H assay, RAD51 hybrid constructs", "description": "as §1, §2"}, "[3]": {"biological_target": "T3, S.cerevisiae Rad51 (1-226) + H.sapiens Rad51 (168-339) (UniProt P25454+Q06609)", "T3 construct": "S.cerevisiae Rad51 (1-226) +; H.sapiens Rad51 (168-339); expressed in transfected cells", "T3 sequence (Q06609 168-339, one chain of several)": "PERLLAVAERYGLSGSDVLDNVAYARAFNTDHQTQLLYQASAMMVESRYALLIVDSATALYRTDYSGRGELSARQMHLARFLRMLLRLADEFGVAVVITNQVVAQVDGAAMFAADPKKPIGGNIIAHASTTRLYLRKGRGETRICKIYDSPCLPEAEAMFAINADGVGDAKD", "assay": "Y2H assay, RAD51 hybrid constructs", "description": "as §1, §2"}, "D.rerio Rad51": {"tested_on": "D.rerio Rad51", "assay": "Y2H assay RAD51/SEQ ID NO.: 5 pair", "description": "RAD51-binding peptides were tested for ability to bind RAD51 of several different species using a “conventional” Y2H assay, where interaction between the two-hybrid pair drove expression of ADE2 and HIS genes."}, "K.pastoris Rad51": {"tested_on": "K.pastoris Rad51", "assay": "Y2H assay RAD51/SEQ ID NO.: 5 pair", "description": "as §1"}, "K.lactis Rad51": {"tested_on": "K.lactis Rad51", "assay": "Y2H assay RAD51/SEQ ID NO.: 5 pair", "description": "as §1"}, "S.cerevisiae Rad51": {"biological_target": "T4, S.cerevisiae Rad51 (Saccharomyces cerevisiae, UniProt P25454)", "T4 construct": "expressed in transfected cells", "T4 sequence (P25454 whole entry)": "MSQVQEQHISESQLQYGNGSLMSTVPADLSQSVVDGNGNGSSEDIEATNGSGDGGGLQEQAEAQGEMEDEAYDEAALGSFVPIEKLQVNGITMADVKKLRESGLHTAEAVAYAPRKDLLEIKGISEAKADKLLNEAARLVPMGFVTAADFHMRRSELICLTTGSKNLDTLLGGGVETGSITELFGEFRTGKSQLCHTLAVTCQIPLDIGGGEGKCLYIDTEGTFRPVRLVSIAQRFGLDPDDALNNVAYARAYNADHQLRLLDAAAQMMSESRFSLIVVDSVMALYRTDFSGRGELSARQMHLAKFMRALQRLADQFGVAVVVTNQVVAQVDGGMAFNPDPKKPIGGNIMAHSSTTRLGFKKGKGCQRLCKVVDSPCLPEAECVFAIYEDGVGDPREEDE", "assay": "Y2H assay RAD51/SEQ ID NO.: 5 pair", "description": "as §1"}, "G.gallus Rad51": {"biological_target": "T5, G.gallus Rad51 (Gallus gallus, UniProt P37383)", "T5 construct": "expressed in transfected cells", "T5 sequence (P37383 1-339)": "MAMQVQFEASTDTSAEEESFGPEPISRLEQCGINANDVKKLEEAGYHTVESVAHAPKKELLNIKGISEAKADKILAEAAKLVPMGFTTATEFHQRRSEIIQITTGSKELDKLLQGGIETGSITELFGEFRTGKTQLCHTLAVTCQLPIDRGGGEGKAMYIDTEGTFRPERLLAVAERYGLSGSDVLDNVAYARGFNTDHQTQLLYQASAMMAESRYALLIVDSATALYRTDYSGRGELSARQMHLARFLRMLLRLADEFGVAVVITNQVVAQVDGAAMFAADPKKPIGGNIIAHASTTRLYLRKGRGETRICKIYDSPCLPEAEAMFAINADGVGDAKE", "assay": "Y2H assay RAD51/SEQ ID NO.: 5 pair", "description": "as §1"}, "S.pombe Rad51": {"biological_target": "T6, S.pombe Rad51 (Schizosaccharomyces pombe, UniProt P36601)", "T6 construct": "expressed in transfected cells", "T6 sequence (P36601 whole entry, looked up)": "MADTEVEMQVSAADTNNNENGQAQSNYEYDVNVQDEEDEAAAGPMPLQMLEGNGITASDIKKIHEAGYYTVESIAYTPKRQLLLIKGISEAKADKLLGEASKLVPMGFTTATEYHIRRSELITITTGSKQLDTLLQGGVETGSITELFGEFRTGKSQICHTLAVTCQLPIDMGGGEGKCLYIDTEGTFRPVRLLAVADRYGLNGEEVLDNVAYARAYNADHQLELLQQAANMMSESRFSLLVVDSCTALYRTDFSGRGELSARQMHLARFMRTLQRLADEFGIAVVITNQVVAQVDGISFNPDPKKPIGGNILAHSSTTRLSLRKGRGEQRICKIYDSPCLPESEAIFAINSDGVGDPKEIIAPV", "assay": "Y2H assay RAD51/SEQ ID NO.: 5 pair", "description": "as §1"}}}
{"sequence": "KRRRRRRRKRLGVRLRVSRML [SEQ ID NO.: 5]", "values": [{"measurement": "SEQ ID NO.: 5 Binding", "setting": "[1]", "result": "+"}, {"measurement": "SEQ ID NO.: 5 Binding", "setting": "[2]", "result": "−"}, {"measurement": "SEQ ID NO.: 5 Binding", "setting": "[3]", "result": "+"}, {"measurement": "Compound 5 Sequence Binding", "setting": "D.rerio Rad51", "result": "+"}, {"measurement": "Compound 5 Sequence Binding", "setting": "K.pastoris Rad51", "result": "+"}, {"measurement": "Compound 5 Sequence Binding", "setting": "K.lactis Rad51", "result": "−"}, {"measurement": "Compound 5 Sequence Binding", "setting": "S.cerevisiae Rad51", "result": "−"}, {"measurement": "Compound 5 Sequence Binding", "setting": "G.gallus Rad51", "result": "+"}, {"measurement": "Compound 5 Sequence Binding", "setting": "S.pombe Rad51", "result": "+"}]}
